# Where two headings read alike, the source gives them in different places.
# Legend:
# [1] = system: Immunoglobulin E (human myeloma IgE) (Homo sapiens); details: nominal Kd, no asymptote reached; described as negligible binding; fluorescence bead binding assay
# [2] = system: Immunoglobulin E (human myeloma IgE) (Homo sapiens); details: fluorescence bead binding assay, 30 min incubation, wash, thermal elution at 95 C; monovalent binding assumed; enriched pool, individual sequences not given
Sequence,Kd [1] [nM],Kd [2] [nM]
GCCTGTTGTGAGCCTCCTGTCGAANNNNNNNNNNNNNNNNNNNNNNNNNNNNNNNNNNNNNNNNNNNNNTTGAGCGTTTATTCTTGTCTCCC [randomized 45N library],620,–
GCCTGTTGTGAGCCTCCTGTCGAANNNNNNNNNNNNNNNNNNNNNNNNNNNNNNNNNNNNNNNNNNNNNTTGAGCGTTTATTCTTGTCTCCC [round-4 enriched IgE aptamer pool],–,12

# — patent US20170067091
